Test [1] addresses soluble form of recombinant mouse CD16 (sCD16) (mouse). The test can be described thus: ELISA. A general note: ELISA stands for enzyme-linked immunosorbent assay.
Test [2] has the same target. Put plainly: SPR. For orientation: In SPR one partner is held on a chip, and binding of the other changes the refractive index at the surface.

Here are results for three substances from PMC4135013.

What is called Kd is the free concentration of one partner at which half of the binding sites on the other are occupied at equilibrium, for simple one-to-one binding.

As to “OVA-IC (soluble immune complex of OVA and rabbit anti-OVA IgG) (from UniProt P01012 1-386)”, the Kd in test [1] is 90 nM.

On to “peroxidase/anti-peroxidase immune complex (PAP-IC)”, for which the Kd in test [2] amounted to 78 nM.

Consider “malondialdehyde-modified low-density lipoprotein (MDALDL)”, for which, in test [2], the dissociation constant (Kd) is 25000 nM.
